Source: publication PMC2918618, “Characterization of the TnsD-attTn7 complex that promotes site-specific insertion of Tn7” (Mobile DNA, 2010)
Changes are numbered by the printed parent chain.

Experiments:
Experiment in all cases: EMSA; Gel-shift buffer not given (as described in ref. 6); TnsD stored in 500 mM KCl, 50 mM Tris-HCl pH 8.0, 1 mM EDTA, 2 mM DTT, 25% glycerol
Conditions in all cases: protein: recombinant; tags: intein-chitin tag, cleaved with DTT
TnsD C127S = biological target: T1, TnsD C127S (Escherichia coli (transposon Tn7), UniProt P13991 1-508, C127S)
T1 sequence: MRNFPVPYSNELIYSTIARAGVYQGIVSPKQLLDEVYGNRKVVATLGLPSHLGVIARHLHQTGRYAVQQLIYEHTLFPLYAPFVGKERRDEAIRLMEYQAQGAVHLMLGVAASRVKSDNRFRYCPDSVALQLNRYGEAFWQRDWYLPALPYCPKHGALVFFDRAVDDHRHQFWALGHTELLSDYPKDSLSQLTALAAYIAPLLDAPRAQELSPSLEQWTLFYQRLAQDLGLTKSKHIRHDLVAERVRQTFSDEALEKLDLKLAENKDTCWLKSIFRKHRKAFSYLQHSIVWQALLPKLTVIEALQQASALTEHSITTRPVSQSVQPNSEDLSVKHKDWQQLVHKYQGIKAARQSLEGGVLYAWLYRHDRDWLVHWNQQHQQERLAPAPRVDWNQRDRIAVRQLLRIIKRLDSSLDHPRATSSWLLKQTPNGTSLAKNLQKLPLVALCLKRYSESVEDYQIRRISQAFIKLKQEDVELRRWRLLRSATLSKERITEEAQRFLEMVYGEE

TnsD G109E = biological target: T2, TnsD G109E (Escherichia coli (transposon Tn7), UniProt P13991 1-508, G109E)
T2 sequence: T1 sequence with G109E, S127C

TnsD A497I = biological target: T3, TnsD A497I (Escherichia coli (transposon Tn7), UniProt P13991 1-508, A497I)
T3 sequence: T1 sequence with S127C, A497I

TnsD P417L = biological target: T4, TnsD P417L (Escherichia coli (transposon Tn7), UniProt P13991 1-508, P417L)
T4 sequence: T1 sequence with S127C, P417L

B1: attTn7 wt (+23 to +58) (dsDNA)
DNA 1: CCGCGTAACCTGGCAAAATCGGTTACGGTTGAGTAA
DNA 2: TTACTCAACCGTAACCGATTTTGCCAGGTTACGCGG
TnsD C127S
  binding signal: 0.05 relative to wt
TnsD G109E
  binding signal: 0.05 relative to wt
TnsD A497I
  binding signal: 0.05 relative to wt
TnsD P417L
  binding signal: 0.07 relative to wt
